# Laboratory results published in paper PMC6498484.
# Biological target: T1, PoxCxrA17-150 (Penicillium oxalicum HP7-1) (UniProt A0A2H4WV05)
# T1 sequence: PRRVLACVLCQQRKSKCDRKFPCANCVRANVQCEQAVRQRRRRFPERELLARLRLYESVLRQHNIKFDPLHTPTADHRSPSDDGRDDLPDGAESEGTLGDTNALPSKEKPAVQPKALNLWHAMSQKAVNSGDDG
# Test: EMSA
# Conditions: EMSA: 20 mM Tris-HCl pH 8.0, 50 mM KCl, 0.1 mg/mL BSA, 5% glycerol, 1 mM DTT, 1 ug salmon sperm DNA, ~50 ng probe, 30 min at 30 C; footprinting at 30 C
row,Sequence,binding
1,AGGAGACGAACAAATGAAAAACAGTTGGCCAACAATTCAACCAAGACCGGCTTCCCTGGAATTGCGGGGAGGGGAGAGTCGTGAAAGTGGATAAGGCTCCTTAATTTTTTTTTTCCCTTCCTCCTGGCCATCGTGTTTTATGGAGGTTCGCTTCCGTCTTGACTATCCGCCGTCGCACTCTTAGTCTCCCCGTTGACCCTCTTTTTCTTCACATCGTCAGATCGTGATCGTTGATCGTTCGGTGCTCTTCTGCTTCTTTTGCTGCTCACCTCCTCCTCCCCCCAGCTGA (double strand) [PBM_PoxClrB-6'],binds
2,GGTGAGCAGCAAAAGAAGCAGAAGAGCACCGAACGATCAACGATCACGATCTGACGATGTGAAGAAAAAGAGGGTCAACGGGGAGACTAAGAGTGCGACGGCGGATAGTCAAGACGGAAGCGAACCTCCATAAAACACGATGGCCAGGAGGAAGGGAAAAAAAAAATTAAGGAGCCTTATCCACTTTCACGACTCTCCCCTCCCCGCAATTCCAGGGAAGCCGGTCTTGGTTGAATTGTTGGCCAACTGTTTTTCATTTGTTCGTCTCCT (double strand) [PoxClrB-270],no binding
3,AGGAGACGAACAAATGAAAAACAGTTGGCCAACAATTCAACCAAGACCGGCTTCCCTGGAATTGCGGGGAGGGGAGAGTCGTGAAAGTGGATAAGGCTCCTTAATTTTTTTTTTCCCTTCCTCCTGGCCATCGTGTTTTATGGAGGTTCGCTTCCGTCTTGACTATCCGCCGTCGCACTCTTAGTCTCCCCGTTGACCCTCTTTTTCTTCACATCGTCAGATCGTGATCGTTGATCGTTCGGTGCTCTTCTGCTTCTTTTGCTGCTCACCTCCTCCTCCCCCCAGCTGAGTCCTT (double strand) [PoxClrB-295],binds
4,GAGAGGCGAATTGCTTCAGGATCCACCCAAGGAAGCAACTATATAAGAAGAGGTGCCATCACCTCGACTCTGGTGTTCATCATCCATTCCTTCCTCATCTCCTCCACCACCCC (double strand) [PBM2 probe],no binding
5,AGGATCTGATGAAAGGGGGGTGGTGGAGGAGATGAGGAAGGAATGGATGATGAACACCAGAGTCGAGGTGATGGCACCTCTTCTTATATAGTTGCTTCCTTGGGTGGATCCTGAAGCAATTCGCCTCTC (double strand) [PBM_POX05587-6'],binds
6,CCCCTTTCATCAGATCCTCAAAGAACAAAATTGATCATCATCTCTTTTGATCTTTGATCCAATCCATCACA (double strand) [PBM1 probe],binds
7,TGTGATGGATTGGATCAAAGATCAAAAGAGATGATGATCAATTTTGTTCTTTGAGGA (double strand) [PBM_POX05587-6],binds
8,TGGGGGGAGGAGGAGGTGAGCAGCAAAAGAAGCAGAAGAGCACCGAACGATCAACGATCACGATCTGACGATGTGAAGAAAAAGAGGGTCAACGGGGAGACTAAGAGTGCGACGGCGGATAGTCAAGACGGAAGCGAACCTCCATAAAACACGATGGCCAGGAGGAAGGGAAAAAAAAAATTAAGGAGCCTTATCCACTTTCACGACTCTCCCCTCCCCGCAATTCCAGGGAAGCCGGTCTTGGTTGAATTGTTGGCCAACTGTTTTTCATTTGTTCGTCTCCT (double strand) [PoxClrB-284],no binding
9,TTGAGGATCTGATGAAAGGGGGGTGGTGGAGGAGATGAGGAAGGAATGGATGATGAACACCAGAGTCGAGGTGATGGCACCTCTTCTTATATAGTTGCTTCCTTGGGTGGATCCTGAAGCAATTCGCCTCTC (double strand) [PBM_POX05587-3'],binds
10,TGTGATGGATTGGATCAAAGATCAAAAGAGATGATGATCAATTTTGTTCTTTGAGGATCT (double strand) [PBM_POX05587-3],binds
11,GACTCAGCTGGGGGGAGGAGGAGGTGAGCAGCAAAAGAAGCAGAAGAGCACCGAACGATCAACGATCACGATCTGACGATGTGAAGAAAAAGAGGGTCAACGGGGAGACTAAGAGTGCGACGGCGGATAGTCAAGACGGAAGCGAACCTCCATAAAACACGATGGCCAGGAGGAAGGGAAAAAAAAAATTAAGGAGCCTTATCCACTTTCACGACTCTCCCCTCCCCGCAATTCCAGGGAAGCCGGTCTTGGTTGAATTGTTGGCCAACTGTTTTTCATTTGTTCGTCTCCT (double strand) [PBM_PoxClrB-3'],binds
